Data from patent publication US20260209386A1 (MYTHIC THERAPEUTICS, published 2026).

T1: Human PTK7 Protein, His Tag, Acro Biosystems (human, UniProt Q13308 31-704)
T1 construct: Bought recombinant protein; also called CCK4; not shown: His tag
T1 sequence: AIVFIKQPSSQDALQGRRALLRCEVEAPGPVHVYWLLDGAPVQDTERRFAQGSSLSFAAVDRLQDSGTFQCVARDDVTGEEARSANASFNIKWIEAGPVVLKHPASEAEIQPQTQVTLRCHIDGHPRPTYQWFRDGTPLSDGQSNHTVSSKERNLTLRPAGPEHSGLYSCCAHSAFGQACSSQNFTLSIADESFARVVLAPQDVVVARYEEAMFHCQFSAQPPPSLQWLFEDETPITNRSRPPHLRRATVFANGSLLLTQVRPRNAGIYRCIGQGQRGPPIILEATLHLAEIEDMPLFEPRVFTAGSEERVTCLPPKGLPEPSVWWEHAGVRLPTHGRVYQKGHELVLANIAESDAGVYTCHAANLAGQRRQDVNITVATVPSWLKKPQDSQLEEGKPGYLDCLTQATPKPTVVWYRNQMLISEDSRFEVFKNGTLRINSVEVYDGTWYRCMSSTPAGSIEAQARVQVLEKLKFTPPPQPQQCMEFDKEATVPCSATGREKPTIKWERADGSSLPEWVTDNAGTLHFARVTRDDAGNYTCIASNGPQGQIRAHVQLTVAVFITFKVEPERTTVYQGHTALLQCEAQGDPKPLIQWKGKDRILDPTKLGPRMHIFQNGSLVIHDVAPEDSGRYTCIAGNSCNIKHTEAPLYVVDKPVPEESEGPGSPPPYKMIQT

T2: Human PTK7 Protein, His Tag (Acro Biosystems) (human, UniProt Q13308 31-704)
T2 construct: Bought His-tagged recombinant human PTK7; also called CCK4; Tyrosine-protein kinase-like 7
T2 sequence: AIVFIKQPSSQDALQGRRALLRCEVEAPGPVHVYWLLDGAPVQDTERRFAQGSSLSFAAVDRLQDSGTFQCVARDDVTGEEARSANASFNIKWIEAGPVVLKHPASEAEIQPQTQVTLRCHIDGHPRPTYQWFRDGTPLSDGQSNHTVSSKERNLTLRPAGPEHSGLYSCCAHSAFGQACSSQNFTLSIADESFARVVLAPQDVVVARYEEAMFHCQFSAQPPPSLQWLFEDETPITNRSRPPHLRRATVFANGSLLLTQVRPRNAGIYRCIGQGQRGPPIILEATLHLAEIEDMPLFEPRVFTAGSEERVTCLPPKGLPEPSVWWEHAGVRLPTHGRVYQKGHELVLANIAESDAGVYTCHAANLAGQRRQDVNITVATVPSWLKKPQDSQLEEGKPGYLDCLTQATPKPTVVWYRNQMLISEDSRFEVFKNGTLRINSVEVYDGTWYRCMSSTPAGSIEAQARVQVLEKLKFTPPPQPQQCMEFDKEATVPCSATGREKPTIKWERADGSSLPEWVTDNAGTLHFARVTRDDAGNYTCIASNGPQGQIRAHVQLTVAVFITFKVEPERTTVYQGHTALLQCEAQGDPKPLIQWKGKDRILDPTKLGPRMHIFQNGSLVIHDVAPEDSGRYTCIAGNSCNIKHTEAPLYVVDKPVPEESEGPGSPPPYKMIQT

B1: MYT10934 (antibody, V domains shown)
VH: EVQLVESGGGLVQPGGSLRLSCTASGFSLSNYVMNWVRQAPGKGLEWVGIIDSSGSTYYASWAKGRFTISRDTSKNTVYLQMNSLRAEDTAVYFCARGLYLWGQGTLVTVSS
VL: EIVMTQSPSTLSASVGDRVIITCQSSQSVYNNNLLAWYQQKPGKAPKLLIYYTHNLASGVPSRFSGSGSGAEFTLTISSLQPDDFATYYCQGGYNGNIYAFGQGTKLTVL
notes: MYT9345 variant, His at VL pos 54 (L2 03)
B2: MYT10945 (antibody, V domains shown)
VH: EVQLVESGGGLVQPGGSLRLSCTASGFSLSNYVMNWVRQAPGKGLEWVGIIDSSGSTYYASWAKGRFTISRDTSKNTVYLQMNSLRAEDTAVYFCARGLYLWGQGTLVTVSS
VL: EIVMTQSPSTLSASVGDRVIITCQSSQSVYNNNLLAWYQQKPGKAPKLLIYYTSNLASGVPSRFSGSGSGAEFTLTISSLQPDDFATYYCQGGYNGHIYAFGQGTKLTVL
notes: MYT9345 variant, His at VL pos 97 (L3 07)
B3: MYT10941 (antibody, V domains shown)
VH: EVQLVESGGGLVQPGGSLRLSCTASGFSLSNYVMNWVRQAPGKGLEWVGIIDSSGSTYYASWAKGRFTISRDTSKNTVYLQMNSLRAEDTAVYFCARGLYLWGQGTLVTVSS
VL: EIVMTQSPSTLSASVGDRVIITCQSSQSVYNNNLLAWYQQKPGKAPKLLIYYTSNLASGVPSRFSGSGSGAEFTLTISSLQPDDFATYYCQGHYNGNIYAFGQGTKLTVL
notes: MYT9345 variant, His at VL pos 93 (L3 03)
B4: MYT10947 (antibody, V domains shown)
VH: EVQLVESGGGLVQPGGSLRLSCTASGFSLSNYVMNWVRQAPGKGLEWVGIIDSSGSTYYASWAKGRFTISRDTSKNTVYLQMNSLRAEDTAVYFCARGLYLWGQGTLVTVSS
VL: EIVMTQSPSTLSASVGDRVIITCQSSQSVYNNNLLAWYQQKPGKAPKLLIYYTSNLASGVPSRFSGSGSGAEFTLTISSLQPDDFATYYCQGGYNGNIHAFGQGTKLTVL
notes: MYT9345 variant, His at VL pos 99 (L3 09)
B5: MYT10940 (antibody, V domains shown)
VH: EVQLVESGGGLVQPGGSLRLSCTASGFSLSNYVMNWVRQAPGKGLEWVGIIDSSGSTYYASWAKGRFTISRDTSKNTVYLQMNSLRAEDTAVYFCARGLYLWGQGTLVTVSS
VL: EIVMTQSPSTLSASVGDRVIITCQSSQSVYNNNLLAWYQQKPGKAPKLLIYYTSNLASGVPSRFSGSGSGAEFTLTISSLQPDDFATYYCQHGYNGNIYAFGQGTKLTVL
notes: MYT9345 variant, His at VL pos 92 (L3 02)
B6: MYT10948 (antibody, V domains shown)
VH: EVQLVESGGGLVQPGGSLRLSCTASGFSLSNYVMNWVRQAPGKGLEWVGIIDSSGSTYYASWAKGRFTISRDTSKNTVYLQMNSLRAEDTAVYFCARGLYLWGQGTLVTVSS
VL: EIVMTQSPSTLSASVGDRVIITCQSSQSVYNNNLLAWYQQKPGKAPKLLIYYTSNLASGVPSRFSGSGSGAEFTLTISSLQPDDFATYYCQGGYNGNIYHFGQGTKLTVL
notes: MYT9345 variant, His at VL pos 100 (L3 10)
B7: MYT10938 (antibody, V domains shown)
VH: EVQLVESGGGLVQPGGSLRLSCTASGFSLSNYVMNWVRQAPGKGLEWVGIIDSSGSTYYASWAKGRFTISRDTSKNTVYLQMNSLRAEDTAVYFCARGLYLWGQGTLVTVSS
VL: EIVMTQSPSTLSASVGDRVIITCQSSQSVYNNNLLAWYQQKPGKAPKLLIYYTSNLAHGVPSRFSGSGSGAEFTLTISSLQPDDFATYYCQGGYNGNIYAFGQGTKLTVL
notes: MYT9345 variant, His at VL pos 58 (L2 07)
B8: MYT10951 (antibody, V domains shown)
VH: EVQLVESGGGLVQPGGSLRLSCTASHFSLSSYAMGWVRQAPGKGLEWVGFINAGGNTYYANWAKGRFTISRDTSKNTVYLQMNSLRAEDTAVYFCARRYSRASGWYDLWGQGTLVTVSS
VL: EIVMTQSPSTLSASVGDRVIITCQASQSISSYLAWYQQKPGKAPKLLIYAASTLASGVPSRFSGSGSGAEFTLTISSLQPDDFATYYCQSYSYSSGIDYGDVFGQGTKLTVL
notes: MYT9359 HC variant; captured on anti-human Fc sensor
B9: MYT10963 (antibody, V domains shown)
VH: EVQLVESGGGLVQPGGSLRLSCTASGFSLSSYAMGWVRQAPGKGLEWVGFIHAGGNTYYANWAKGRFTISRDTSKNTVYLQMNSLRAEDTAVYFCARRYSRASGWYDLWGQGTLVTVSS
VL: EIVMTQSPSTLSASVGDRVIITCQASQSISSYLAWYQQKPGKAPKLLIYAASTLASGVPSRFSGSGSGAEFTLTISSLQPDDFATYYCQSYSYSSGIDYGDVFGQGTKLTVL
notes: as for B8
B10: MYT10969 (antibody, V domains shown)
VH: EVQLVESGGGLVQPGGSLRLSCTASGFSLSSYAMGWVRQAPGKGLEWVGFINAGGNTHYANWAKGRFTISRDTSKNTVYLQMNSLRAEDTAVYFCARRYSRASGWYDLWGQGTLVTVSS
VL: EIVMTQSPSTLSASVGDRVIITCQASQSISSYLAWYQQKPGKAPKLLIYAASTLASGVPSRFSGSGSGAEFTLTISSLQPDDFATYYCQSYSYSSGIDYGDVFGQGTKLTVL
notes: as for B8
B11: MYT10957 (antibody, V domains shown)
VH: EVQLVESGGGLVQPGGSLRLSCTASGFSLSSHAMGWVRQAPGKGLEWVGFINAGGNTYYANWAKGRFTISRDTSKNTVYLQMNSLRAEDTAVYFCARRYSRASGWYDLWGQGTLVTVSS
VL: EIVMTQSPSTLSASVGDRVIITCQASQSISSYLAWYQQKPGKAPKLLIYAASTLASGVPSRFSGSGSGAEFTLTISSLQPDDFATYYCQSYSYSSGIDYGDVFGQGTKLTVL
notes: as for B8
B12: MYT10959 (antibody, V domains shown)
VH: EVQLVESGGGLVQPGGSLRLSCTASGFSLSSYAHGWVRQAPGKGLEWVGFINAGGNTYYANWAKGRFTISRDTSKNTVYLQMNSLRAEDTAVYFCARRYSRASGWYDLWGQGTLVTVSS
VL: EIVMTQSPSTLSASVGDRVIITCQASQSISSYLAWYQQKPGKAPKLLIYAASTLASGVPSRFSGSGSGAEFTLTISSLQPDDFATYYCQSYSYSSGIDYGDVFGQGTKLTVL
notes: as for B8
B13: MYT10978 (antibody, V domains shown)
VH: EVQLVESGGGLVQPGGSLRLSCTASGFSLSSYAMGWVRQAPGKGLEWVGFINAGGNTYYANWAKGRFTISRDTSKNTVYLQMNSLRAEDTAVYFCAHRYSRASGWYDLWGQGTLVTVSS
VL: EIVMTQSPSTLSASVGDRVIITCQASQSISSYLAWYQQKPGKAPKLLIYAASTLASGVPSRFSGSGSGAEFTLTISSLQPDDFATYYCQSYSYSSGIDYGDVFGQGTKLTVL
notes: as for B8
B14: MYT10966 (antibody, V domains shown)
VH: EVQLVESGGGLVQPGGSLRLSCTASGFSLSSYAMGWVRQAPGKGLEWVGFINAGHNTYYANWAKGRFTISRDTSKNTVYLQMNSLRAEDTAVYFCARRYSRASGWYDLWGQGTLVTVSS
VL: EIVMTQSPSTLSASVGDRVIITCQASQSISSYLAWYQQKPGKAPKLLIYAASTLASGVPSRFSGSGSGAEFTLTISSLQPDDFATYYCQSYSYSSGIDYGDVFGQGTKLTVL
notes: as for B8
B15: MYT10962 (antibody, V domains shown)
VH: EVQLVESGGGLVQPGGSLRLSCTASGFSLSSYAMGWVRQAPGKGLEWVGFHNAGGNTYYANWAKGRFTISRDTSKNTVYLQMNSLRAEDTAVYFCARRYSRASGWYDLWGQGTLVTVSS
VL: EIVMTQSPSTLSASVGDRVIITCQASQSISSYLAWYQQKPGKAPKLLIYAASTLASGVPSRFSGSGSGAEFTLTISSLQPDDFATYYCQSYSYSSGIDYGDVFGQGTKLTVL
notes: as for B8
B16: MYT10970 (antibody, V domains shown)
VH: EVQLVESGGGLVQPGGSLRLSCTASGFSLSSYAMGWVRQAPGKGLEWVGFINAGGNTYHANWAKGRFTISRDTSKNTVYLQMNSLRAEDTAVYFCARRYSRASGWYDLWGQGTLVTVSS
VL: EIVMTQSPSTLSASVGDRVIITCQASQSISSYLAWYQQKPGKAPKLLIYAASTLASGVPSRFSGSGSGAEFTLTISSLQPDDFATYYCQSYSYSSGIDYGDVFGQGTKLTVL
notes: as for B8
B17: MYT10974 (antibody, V domains shown)
VH: EVQLVESGGGLVQPGGSLRLSCTASGFSLSSYAMGWVRQAPGKGLEWVGFINAGGNTYYANWHKGRFTISRDTSKNTVYLQMNSLRAEDTAVYFCARRYSRASGWYDLWGQGTLVTVSS
VL: EIVMTQSPSTLSASVGDRVIITCQASQSISSYLAWYQQKPGKAPKLLIYAASTLASGVPSRFSGSGSGAEFTLTISSLQPDDFATYYCQSYSYSSGIDYGDVFGQGTKLTVL
notes: as for B8
B18: MYT10980 (antibody, V domains shown)
VH: EVQLVESGGGLVQPGGSLRLSCTASGFSLSSYAMGWVRQAPGKGLEWVGFINAGGNTYYANWAKGRFTISRDTSKNTVYLQMNSLRAEDTAVYFCARRHSRASGWYDLWGQGTLVTVSS
VL: EIVMTQSPSTLSASVGDRVIITCQASQSISSYLAWYQQKPGKAPKLLIYAASTLASGVPSRFSGSGSGAEFTLTISSLQPDDFATYYCQSYSYSSGIDYGDVFGQGTKLTVL
notes: as for B8

The binders below were run against T1, Human PTK7 Protein, His Tag, Acro … (assay: BLI (Octet), antibody on anti-human Fc sensor, 50 nM PTK7 at pH 7.4, dissociation at pH 7.4 or 5.4; 2 = substantially similar binding relative to parent).

Binding result, binds:
B1
B2
B3
B4
B5
B6
B7

Each binder was assayed against T2, Human PTK7 Protein, His Tag (Acro …) (assay: BLI (Octet), antibody on anti-human Fc sensor, 50 nM PTK7; 1 = pH dependent binding).

Binding result, binds:
B8
B9
B10
B11
B12
B13
B14
B15
B16
B17
B18
